# How the values were obtained:
# Experiment in all cases: cell-based or functional assay
# [1] = biological target: HIV-1 Env of pseudovirus PVO.4 (HIV-1)
# [2] = biological target: HIV-1 Env of pseudovirus ZM249M.PL1 (HIV-1)
# [3] = biological target: HIV-1 Env of pseudovirus TRO.11 (HIV-1)
# [4] = biological target: HIV-1 Env of pseudovirus ZM214M.PL15 (HIV-1)
# [5] = biological target: HIV-1 Env of pseudovirus Q461.e2 (HIV-1)
# [6] = biological target: HIV-1 Env of pseudovirus Ce0682_E4 (HIV-1)
# [7] = biological target: HIV-1 Env of pseudovirus R3265.c06 (HIV-1)
# [8] = biological target: HIV-1 Env of pseudovirus Ce2060_G9 (HIV-1)
# [9] = biological target: HIV-1 Env of pseudovirus Q259.d2.17 (HIV-1)
# [10] = biological target: HIV-1 Env of pseudovirus CNE53 (HIV-1)
# [11] = biological target: HIV-1 Env of pseudovirus 235-47 (HIV-1)
# [12] = biological target: HIV-1 Env of pseudovirus C4118.c09 (HIV-1)
# [13] = biological target: HIV-1 Env of pseudovirus BJOX009000.02.4 (HIV-1)
# [14] = biological target: HIV-1 Env of pseudovirus 62357_14_D3_4589 (HIV-1)
# [15] = biological target: HIV-1 Env of pseudovirus WEAU_d15_410_787 (HIV-1)
# [16] = biological target: HIV-1 Env of pseudovirus HIV-0013095-2.11 (HIV-1)
# [17] = biological target: HIV-1 Env of pseudovirus X2088_c9 (HIV-1)
# [18] = biological target: HIV-1 Env of pseudovirus R1166.c01 (HIV-1)
# [19] = biological target: HIV-1 Env of pseudovirus HIV-16845-2.22 (HIV-1)
# [20] = biological target: HIV-1 Env of pseudovirus REJO4541.67 (HIV-1)
# [21] = biological target: HIV-1 Env of pseudovirus C1080.c03 (HIV-1)
# [22] = biological target: HIV-1 Env of pseudovirus QH0692.42 (HIV-1)
# [23] = biological target: HIV-1 Env of pseudovirus 3365.v2.c2 (HIV-1)
# [24] = biological target: HIV-1 Env of pseudovirus BJOX015000.11.5 (HIV-1)
# [25] = biological target: HIV-1 Env of pseudovirus Du156.12 (HIV-1)
# [26] = biological target: HIV-1 Env of pseudovirus 191084 B7-19 (HIV-1)
# [27] = biological target: HIV-1 Env of pseudovirus T257-31 (HIV-1)
# [28] = biological target: HIV-1 Env of pseudovirus Ce2010_F5 (HIV-1)
# [29] = biological target: HIV-1 Env of pseudovirus BJOX010000.06.2 (HIV-1)
# [30] = biological target: HIV-1 Env of pseudovirus Du422.1 (HIV-1)
substance,measurement,setting,value
N49P7 (antibody),neutralization IC50,[1],0.107 µg/mL
same,neutralization IC80,[1],0.365 µg/mL
same,neutralization MPI,[1],100
same,neutralization IC50,[2],0.039 µg/mL
same,neutralization IC80,[2],0.134 µg/mL
same,neutralization MPI,[2],100
same,neutralization IC50,[3],0.044 µg/mL
same,neutralization IC80,[3],0.16 µg/mL
same,neutralization MPI,[3],100
same,neutralization IC50,[4],0.213 µg/mL
same,neutralization IC80,[4],0.953 µg/mL
same,neutralization MPI,[4],100
same,neutralization IC50,[5],0.261 µg/mL
same,neutralization IC80,[5],0.922 µg/mL
same,neutralization MPI,[5],100
same,neutralization IC50,[6],0.041 µg/mL
same,neutralization IC80,[6],0.131 µg/mL
same,neutralization MPI,[6],100
same,neutralization IC50,[7],0.048 µg/mL
same,neutralization IC80,[7],0.282 µg/mL
same,neutralization MPI,[7],100
same,neutralization IC50,[8],0.661 µg/mL
same,neutralization IC80,[8],2.55 µg/mL
same,neutralization MPI,[8],100
same,neutralization IC50,[9],0.332 µg/mL
same,neutralization IC80,[9],2.47 µg/mL
same,neutralization MPI,[9],98
same,neutralization IC50,[10],0.035 µg/mL
same,neutralization IC80,[10],0.124 µg/mL
same,neutralization MPI,[10],100
same,neutralization IC50,[11],0.045 µg/mL
same,neutralization IC80,[11],0.3 µg/mL
same,neutralization MPI,[11],99
same,neutralization IC50,[12],0.043 µg/mL
same,neutralization IC80,[12],0.147 µg/mL
same,neutralization MPI,[12],100
same,neutralization IC50,[13],0.113 µg/mL
same,neutralization IC80,[13],0.506 µg/mL
same,neutralization MPI,[13],100
same,neutralization IC50,[14],0.025 µg/mL
same,neutralization IC80,[14],0.102 µg/mL
same,neutralization MPI,[14],100
same,neutralization IC50,[15],0.045 µg/mL
same,neutralization IC80,[15],0.117 µg/mL
same,neutralization MPI,[15],100
same,neutralization IC50,[16],0.073 µg/mL
same,neutralization IC80,[16],0.253 µg/mL
same,neutralization MPI,[16],100
same,neutralization IC50,[17],0.116 µg/mL
same,neutralization IC80,[17],0.338 µg/mL
same,neutralization MPI,[17],100
same,neutralization IC50,[18],0.092 µg/mL
same,neutralization IC80,[18],0.313 µg/mL
same,neutralization MPI,[18],100
same,neutralization IC50,[19],0.95 µg/mL
same,neutralization IC80,[19],3.94 µg/mL
same,neutralization MPI,[19],100
same,neutralization IC50,[20],0.015 µg/mL
same,neutralization IC80,[20],0.049 µg/mL
same,neutralization MPI,[20],100
same,neutralization IC50,[21],0.114 µg/mL
same,neutralization IC80,[21],0.765 µg/mL
same,neutralization MPI,[21],100
same,neutralization IC50,[22],0.663 µg/mL
same,neutralization IC80,[22],2.41 µg/mL
same,neutralization MPI,[22],100
same,neutralization IC50,[23],0.07 µg/mL
same,neutralization IC80,[23],0.186 µg/mL
same,neutralization MPI,[23],100
same,neutralization IC50,[24],0.036 µg/mL
same,neutralization IC80,[24],0.157 µg/mL
same,neutralization MPI,[24],100
same,neutralization IC50,[25],0.032 µg/mL
same,neutralization IC80,[25],0.086 µg/mL
same,neutralization MPI,[25],100
same,neutralization IC50,[26],0.047 µg/mL
same,neutralization IC80,[26],0.142 µg/mL
same,neutralization MPI,[26],100
same,neutralization IC50,[27],0.158 µg/mL
same,neutralization IC80,[27],0.619 µg/mL
same,neutralization MPI,[27],100
same,neutralization IC50,[28],0.13 µg/mL
same,neutralization IC80,[28],0.547 µg/mL
same,neutralization MPI,[28],100
same,neutralization IC50,[29],0.085 µg/mL
same,neutralization IC80,[29],0.592 µg/mL
same,neutralization MPI,[29],100
same,neutralization IC50,[30],4.5 µg/mL
same,neutralization IC80,[30],19.5 µg/mL
same,neutralization MPI,[30],93

# — US20230002480A1
